Each binder was assayed against human CD28 (human, UniProt P10747 19-220) (assay: -; scFv VHVL, 1+1 Fab-scFv-Fc format).

Binder | Kd
H1L1 (antibody, V domains shown) VH: EVQLLESGGGLVQPGGSLRLSCAASGFTFSSYAMSWVRQAPGKGLEWVSTISGSGDSTYYADSVKGRFTISRDNSKNTLYLQMNSLRAEDTAVYYCAKSGPGLRQVGFDYWGQGTLVTVSS VL: not shown | 1000 nM
H1.1_L1 (antibody, V domains shown) VH: EVQLLESGGGLVQPGGSLRLSCAASGFTFSSYYMSWVRQAPGKGLEWVSTISGSGDSTYYADSVKGRFTISRDNSKNTLYLQMNSLRAEDTAVYYCAKSGPGLRQVGFDYWGQGTLVTVSS VL: not shown | 600 nM

Now those with a lower Kd, led by results:

Kd | Binder
180 nM | H1_L1.71 (antibody, V domains shown) VH: EVQLLESGGGLVQPGGSLRLSCAASGFTFSSYAMSWVRQAPGKGLEWVSTISGSGDSTYYADSVKGRFTISRDNSKNTLYLQMNSLRAEDTAVYYCAKSGPGLRQVGFDYWGQGTLVTVSS VL: not shown
96 nM | H1.1_L1.71 (antibody, V domains shown) VH: EVQLLESGGGLVQPGGSLRLSCAASGFTFSSYYMSWVRQAPGKGLEWVSTISGSGDSTYYADSVKGRFTISRDNSKNTLYLQMNSLRAEDTAVYYCAKSGPGLRQVGFDYWGQGTLVTVSS VL: not shown
